In patent US20240317871A1 (IMMUNOMIC THERAPEUTICS, published 2024):

T1: Human HEVM recombinant protein (Sino Biological, 10334-H02H) (human, UniProt Q92956 39-202)
T1 construct: construct known only by catalogue number; also called HVEM; human HVEM
T1 sequence (looked up): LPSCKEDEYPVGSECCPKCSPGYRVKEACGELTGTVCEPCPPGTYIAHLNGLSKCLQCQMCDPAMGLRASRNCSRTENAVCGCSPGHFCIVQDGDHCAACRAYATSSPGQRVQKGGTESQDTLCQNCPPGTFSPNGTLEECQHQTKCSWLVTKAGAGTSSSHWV

T2: human HVEM (human, UniProt Q92956 39-202, limits assumed)
T2 sequence (looked up): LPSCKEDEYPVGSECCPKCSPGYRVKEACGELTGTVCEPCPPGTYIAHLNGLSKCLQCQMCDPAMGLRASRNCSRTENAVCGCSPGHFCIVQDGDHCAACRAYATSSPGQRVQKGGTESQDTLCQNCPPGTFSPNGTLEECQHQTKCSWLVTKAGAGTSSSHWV

T3: murine HVEM (murine, UniProt Q80WM9 39-206, limits assumed)
T3 construct: also called Mouse
T3 sequence (looked up): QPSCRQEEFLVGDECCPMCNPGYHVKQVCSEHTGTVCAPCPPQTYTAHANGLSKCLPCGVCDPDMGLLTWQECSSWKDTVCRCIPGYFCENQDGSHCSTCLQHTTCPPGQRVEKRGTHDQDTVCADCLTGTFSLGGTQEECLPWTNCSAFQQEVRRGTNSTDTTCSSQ

T4: cynomolgus monkey HVEM (cynomolgus monkey, UniProt A0A2K5W0R1 39-203)
T4 sequence: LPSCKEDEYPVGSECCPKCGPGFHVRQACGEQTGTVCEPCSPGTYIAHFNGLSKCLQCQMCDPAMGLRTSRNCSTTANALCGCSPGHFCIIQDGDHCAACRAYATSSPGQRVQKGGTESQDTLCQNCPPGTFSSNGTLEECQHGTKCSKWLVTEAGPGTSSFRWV

T5: His-tagged human HVEM (human, UniProt Q92956 39-202, limits assumed)
T5 construct: Analyte of the BLI assay, 200 nM in PBS; not shown: His tag
T5 sequence (looked up): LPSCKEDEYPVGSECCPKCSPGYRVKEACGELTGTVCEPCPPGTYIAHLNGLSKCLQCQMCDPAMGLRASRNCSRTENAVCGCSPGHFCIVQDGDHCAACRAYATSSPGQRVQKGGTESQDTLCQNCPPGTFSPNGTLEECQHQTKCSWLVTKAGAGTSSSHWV


Assays:
[1] = target: T1, Human HEVM recombinant protein (Sino …); assay: competition ELISA, competitor BTLA-His
Procedure: (§1) The competitive activity of HVEM antibody to BTLA or LIGHT was evaluated with ELISA-based competitive assay. Briefly Human HEVM recombinant protein (Sino Biological, 10334-H02H, 4 ug/ml, 100 ul/well) was coated to ELISA plate (Thermo Scientific, 469949, 4C overnight). A pre-mixture of HVEM antibody clone with seral dilution and 400 nM BTLA-His (R&D systems, 9235-BT-050) or LIGHT-His (SinoBiological, 10386-H07H) recombinant protein was made and added to the ELISA plate after blocking with 3% BSA (200 ul/well, RT 2 Hr) for 1 Hr at RT. The serial dilutions of HVEM antibody clone involve 7 different concentrations, with a 3-fold dilution performed start from 100 nM for BTLA or 325 nM for LIGHT competitive assay. The concentration was the final concentration. Plate was washed with PBST; diluted HRP-anti-His (Biolegend, 652504, 1:1000) with PBS containing 5% FBS was added 100 ul per well for 1 Hr at RT. TMB substrate (KPL, 52-00-00) 100 ul per well after washing and incubate at room temperature for 15 minutes; then stop the development by adding 100 ul stop solution (KPL, 50-85-06). Plate was read at 450 nm. The IC50 was calculated using GraphPad Prism software (GraphPad Software, Inc. San Diego, CA, USA).

[2] = target: T2, human HVEM; assay: ELISA
[3] = target: T3, murine HVEM; assay: ELISA
[4] = target: T4, cynomolgus monkey HVEM; assay: ELISA
[5] = target: T5, His-tagged human HVEM; assay: BLI OctetRed96, mAb captured, 200 nM His-HVEM
Procedure: Binding of antibodies to HVEM may also be determined by bio-layer interferometry (BLI) on an OctetRed96@ system (Sartorius). (See http://www.fortebio.com/bli_technology.html for general description of a BLI assay.) For this experiment, murine anti-human HVEM antibodies were captured from culture supernatant using anti-mouse IgG Fc capture and immobilized to dip and read biosensors. Sensors were then dipped into a solution of 200 nM His-tagged human HVEM in phosphate-buffered saline (PBS). Probes were dipped into PBS assay buffer and the dissociation rate (koff) was measured. The association rate (kₒₙ) and affinity (KD) were determined by curve fitting analysis.

[6] = target: T1, Human HEVM recombinant protein (Sino …); assay: competition ELISA, competitor LIGHT-His
Procedure: as §1

IC50 [1] [nM] | ELISA signal [2] | ELISA signal [3] | ELISA signal [4] | Kd [5] [nM] | koff [5] [s⁻¹] | kon [5] [M⁻¹ s⁻¹] | IC50 [6] [nM] | Binder
2.4 | 3.1 | 0.043 | 0.088 | 11.1 | 0.00864 | 776000 |  | Ab_026 (H5S15-11A3B) (antibody, V domains shown, also called Ab_26) VH: EVQLQQSGADLVKPGASVKLSCTASGFNIKDTYMHWVKQRPEQGLEWIGRIAPANGRTKYDPKFQGKATITADTSSNTAYLQLSSLTSEDTAVYYCANYYASSYDWFAYWGQGTLVTVSA VL: DVLMTQTPLSLTVSLGHQASISCRSSQSIVHSNGNTYLEWYLQKPGQSPKLLIYKVSNRFSGVPDRFSGSGSGTDFTLKISRVEAEDLGVYYCFQGSHVPLTFGAGTKLELK
2.2 | 3.13 | 0.043 | 0.064 | 2.68 | 0.00171 | 639000 |  | Ab_027 (H5S15-17A16A) (antibody, V domains shown, also called Ab_27) VH: EVQLQQSGAELVKPGASVKLSCTASGFNIKDTYMHWVKQRPEQGLEWIGRIAPANGKTKFDPKFQGKATITADTSSNTAYLQLSSLTSEDTAVYYCANYYGRSNDWFVYWGQGTLVTVSA VL: DVLMTQTPLSLPVSLGDQASISCRSSQSIVHSNGITYLEWYLQKPGQSPELLIYKVSNRFSGVPDRFSGSGSGTDFTLKISRVEAEDLGVYYCFQGSHVPLTFGAGTKLELK
 | 3.08 | 0.047 | 2.98 | 2.2 | 0.00093 | 423000 | 20.4 | Ab_071 (H5S20-3B7A) (antibody, V domains shown, also called Ab_149; Ab_71) VH: QVQLQQSGAELVRPGTSVKISCKASGYTFTNSWLGWVKQRPGHGLEWIGDIYPGGGYNKYNEKFRGKATLTADTSSSTAYMQLSSLTSEDSAVYFCAGAMDYWGQGTSVTVSS VL: not shown
 | 3.16 | 0.049 | 2.97 | 2.78 | 0.00107 | 385000 | 20.5 | Ab_011 (H5S14-12A11A) (antibody, V domains shown, also called Ab_11) VH: QVQLQQSGAELVRPGTSVKISCKASGNIFTNSWLGWIKQRPGHGLEWIGDVYPGGGYNKYNEKFKGKATLTIDTSASTAYMQLSRLTSEDSGVYFCAGAMDYWGQGTSVTVSS VL: not shown
 | 3.08 | 0.044 | 2.89 | 3.22 | 0.00121 | 375000 | 20.9 | Ab_012 (H5S14-13A11A) (antibody, V domains shown, also called Ab_12) VH: QVQLQQSGAELVRPGTSVKISCKASGYIFTNSWLGWIKQRPGHGLEWIGDVYPGGGYNKYNEKFKGKATLTIDTSASTAYMQLSRLTSEDSAVYFCAGAMDYWGQGTSVTVSS VL: not shown
11.3 | 2.68 | 0.044 | 0.068 | 7210 | 1.15 | 159000 |  | Ab_010 (H5S14-10A9A) (antibody, V domains shown, also called Ab_10) VH: not shown VL: DIQMTQSPASLSASVGETVTITCRASENIYSYLAWYQQKQGKSPQLLVYNAKTLAEGVPSRFSGSGSGTQFSLKINSLQPEDFGSYYCQHHYGTMYTFGGGTKLEIK
5.2 | 3.22 | 0.045 | 0.069 | 1570 | 0.323 | 206000 |  | Ab_087 (H5S20-59A43A) (antibody, V domains shown, also called Ab_87) VH: EVKLVESGGGLVKPGGSLKLSCAASGFTFSSYAMSWVRQTPEKRLEWVASISSGSSTYYPDSVKGRFTISRDNARNILYLQMSSLRSEDTAMYYCAKGRGYGNYLYAMDYWGQGTSVTVSS VL: DIVMTQSQKFMSTSVGDRVSVTCKASQNVGTNVAWYQQKPGQSPKALIYSASYRYSGVPDRFTGSGSGTDFTLTISNVQSEDLAEYFCQQYNSYPLTFGGGTKLEIK
1.3 | 3.33 | 0.045 | 0.068 | 47 | 0.0403 | 858000 |  | Ab_029 (H5S15-14A14B) (antibody, V domains shown, also called Ab_29) VH: EVQLQQSGPELVKPGASVKMSCKASGYTFTSYVMHWVKQKPGQGLEWIGYINPYNDDTNCNEKFKGKATLTSDKSSSTAYMELSRLTSEDSAVYYCAKARGYGSTFYYSMDYWGQGTSVTVSS VL: DIVMTQSQKFMSTSVGDRVSVTCKASQNVGTNVAWYQQRPGQSPKSLIYSASYRYSGVPDRFTGSGSGTDFTLTISNVQSEDLADYFCQQYNSYPYTFGGGAKLEIK
2.1 | 3.11 | 0.047 | 1.88 | 35.1 | 0.0175 | 497000 |  | Ab_009 (H5S14-8A7A) (antibody, V domains shown, also called Ab_9) VH: EVKLVESGGDLVKPGGSLKLSCAASGFTFSNYAMSWVRQTPEKRLEWVASISTGGTTSYYSDSVKGRFTISRDNARNILYLQMSSLRSEDTAMYYCARGGGGNYFWFTYWGQGTLVTISA VL: DVVMTQTPLSLPVSLGDQASISCRSSQSLVHSNGNTYLHWYLQKPGQSPKLLIYKVSNRFSGVPDRFSGSGSGTDFTLKISRVEAEDLGVYFCSQSTHVPFTFGSGTKLEIK
 | 3.14 | 0.043 | 2.69 | 19.6 | 0.00692 | 353000 | 24.6 | Ab_006 (H5S14-5A5A) (antibody, V domains shown, also called Ab_6) VH: DVQLQESGPGLVKPSQSLSLTCTVTGYSITSDFAWNWIRQFPGNKLEWMGYIVYSGSTSYNPSLKSRISITRDTSKNQFFLQLNSVTAEDTATYFCTRGMDYWGQGTSVTVSS VL: QIVLTQSPAIISASLGEEVTLTCSASSSVSYMHWYQQKSGTSPKLLIYSTSNLASGVPSRFSGSGSGTFYSLTISSVEAEDAADYYCHQWSSYLTFGAGTKLELK
1.4 | 3.16 | 0.05 | 2.19 | 6.9 | 0.00266 | 386000 |  | Ab_028 (H5S15-33A29A) (antibody, V domains shown, also called Ab_28) VH: QVQLKQSGPGLVQPSQSLSITCTVSGFSLTTYGVHWVRQSPGKGLEWLGVIWSGGNTDYNPAFISRLSISKDNSKSQVFFKMNTLQASDTAIYYCARRGYNKGYAMDYWGQGTSFTVSS VL: EIVLTQSPALMTASPGEKVTITCSVSSTISSRNLHWYQQKSEASPKPWIYGTSNLASGVPVRFSGSGSGTSYSLTISSMEAEDAATYYCQQWNSYPLTFGSGTKLEIK
10 | 3.01 | 0.045 | 3.16 | 11.6 | 0.00596 | 515000 |  | Ab_025 (H5S15-2A2A) (antibody, V domains shown, also called Ab_25) VH: EVQLQQSGAELVKPGASVKLSCTASGFNIKDTYMHWVKQRPEQGLEWIGRIDPANDNTKYDPKFQGKATITADTSSNTAYLQLSSLTSEDTAVYYCARVYYAMDYWGQGTSVTVSS VL: DIQMTQSPASLSASVGETVTITCRASENIYSYLAWYQQKQGKSPQLLVYNAKTLAEGVPSRFSGSGSGTQFSLKINSLQPEDFGSYYCQHHYGTYTFGGGTKLEIK
 | 2.5 | 0.042 | 2.23 | 20.4 | 0.00291 | 143000 | 369 | Ab_054 (H5S19-21A17C) (antibody, V domains shown, also called Ab_54) VH: QVQLKESGPGLVAPSQSLSITCTVSGFSLTSYGVHWVRQPPGKGLEWLGVIWAGGITNYNSALMSRLSISTDNSRSQVFLKMNSLQTDDTAMYYCARDWERDSSGPFPYWGQGTLVTVSA VL: DIQMTQTTSSLSASLGDRVTISCSASQGISNYLNWYQQKPDGTVKLLIYYTSSLHSGVPSRFSGSGSGTDYSLTISNLEPEDIATYFCQQYSKLPWTFGGGTKLEIK
